Six molecules from publication PMC8093215 (Nature Communications, 2021) can be followed below.

Read-outs that look alike come from different tables or passages of the source. No end group written: not given here. trimethyl = trimethyl-lysine; dimethyl = dimethyl-lysine

As usually defined, the stoichiometry N is the number of molecules, sites or subunits per partner or assembly. By Kd is commonly meant the free concentration of one partner at which half of the binding sites on the other are occupied at equilibrium, for simple one-to-one binding. Read a high Kd as a looser complex.

Test [1] deals with T1, human DNMT1 BAH1 domain, wild type, His6-MBP construct used for the autoinhibitory linker binding (human, UniProt P26358 728-900).
T1 construct: numbering on isoform 1 of 1616 amino acids; also called hDNMT1_(BAH1), WT; source: E. coli BL21(DE3) RIL, purified (Ni, ion exchange, TEV cleavage, Ni, SEC)
The test can be described thus: ITC; hDNMT1 BAH1 domain (WT, W796A or Mut^YW) with the autoinhibitory linker peptide hDNMT1(714-727); 5 °C; single-site binding mode. The settings on record: both partners purified. Background: In ITC the heat of successive injections is recorded.

For test [2], the target named is T2, MBP-tagged human DNMT1 residues 351-1600, M718A/H719A/K723A/K724A/K725A/Q726A (Mut^linker) (human, UniProt P26358 351-1600, M718A | H719A | K723A | K724A | K725A | Q726A).
T2 construct: numbering on isoform 1 of 1616 amino acids; also called MBP-Mut^linker; source: E. coli BL21(DE3) RIL, purified
As to the kind of experiment: ITC.

Test [3] deals with T3, human DNMT1 BAH1 domain (residues 728-900), E821A (human, UniProt P26358 728-900, E821A).
T3 construct: numbering on isoform 1 of 1616 amino acids; also called hDNMT1_(BAH1), E821A; source: E. coli BL21(DE3) RIL, purified as the wild-type protein; not shown: His6-SUMO, N-terminal, cleaved
As to the kind of experiment: ITC; 1 mM H4K20me peptide titrated over 0.1 mM hDNMT1 BAH1 or BAH2 domain; 25 mM Tris-HCl pH 7.5, 100 mM NaCl, 2 mM DTT; 5 °C; single-site binding mode. The settings on record: both partners purified.

Test [4] concerns the target T4, human DNMT1 BAH1 domain (residues 728-900), E819A (human, UniProt P26358 728-900, E819A).
T4 construct: numbering on isoform 1 of 1616 amino acids; also called hDNMT1_(BAH1), E819A; source: E. coli BL21(DE3) RIL, purified as the wild-type protein; not shown: His6-SUMO, N-terminal, cleaved
The description is as above. The settings on record: both partners purified.

Test [5] has as its target T5, human DNMT1 BAH1 domain (residues 728-900), D768A (human, UniProt P26358 728-900, D768A).
T5 construct: numbering on isoform 1 of 1616 amino acids; also called hDNMT1_(BAH1), D768A; source: E. coli BL21(DE3) RIL, purified as the wild-type protein; not shown: His6-SUMO, N-terminal, cleaved
The description is as above. The settings on record: both partners purified.

For test [6], the target named is T2, MBP-tagged human DNMT1 residues …. The test can be described thus: ITC. This is another data set of the same source.
Test [7] has as its target T6, bovine DNMT1 BAH1 domain (residues 725–897, residues 838–858 replaced by GAGSA) (bovine, UniProt Q24K09 725-837; Q24K09 859-897).
T6 construct: bovine DNMT1 BAH1 domain, residues 725-837; linker that replaces residues 838-858 to facilitate crystallization; bovine DNMT1 BAH1 domain, residues 859-897; the last two beta-strands were domain-swapped during crystallization; also called bDNMT1_(BAH1); source: E. coli BL21(DE3) RIL, purified (Ni, ULP1 cleavage, Q XL, Ni, SEC); not shown: His6-SUMO, N-terminal, cleaved
T6 chain: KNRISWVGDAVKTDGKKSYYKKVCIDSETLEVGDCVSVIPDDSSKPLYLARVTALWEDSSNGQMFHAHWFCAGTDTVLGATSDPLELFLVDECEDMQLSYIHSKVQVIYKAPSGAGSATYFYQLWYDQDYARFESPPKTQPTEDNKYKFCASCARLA
The test can be described thus: crystal structure; bDNMT1 BAH1 mixed with peptide 1:3; hanging drop, 13% PEG1500, 20 mM DTT, 200 mM L-proline, 4 °C; HEPES pH 7.5 (K20me3) or MES pH 6.5 (K20me2). Particulars: both partners purified.

Test [8] concerns the target T7, hDNMT1 BAH1 domain from the His6-MBP vector (human, UniProt P26358 728-900).
T7 construct: numbering on isoform 1 of DNMT1 with 1616 amino acids; also called WT; source: E. coli BL21(DE3) RIL, purified (Ni, ion exchange, TEV cleavage, Ni, SEC); not shown: His6-MBP, N-terminal, cleaved
The test can be described thus: ITC; hDNMT1 BAH1 (WT, W796A or Mut^YW) with the autoinhibitory linker peptide hDNMT1(714-727); 5 °C; single-site fit. Particulars: both partners purified.

Test [9] deals with T8, human ORC1 BAH domain (residues 1-185) (human, UniProt Q13415 1-185).
T8 construct: human origin recognition complex subunit 1 (ORC1), BAH domain, residues 1-185
T8 sequence (looked up): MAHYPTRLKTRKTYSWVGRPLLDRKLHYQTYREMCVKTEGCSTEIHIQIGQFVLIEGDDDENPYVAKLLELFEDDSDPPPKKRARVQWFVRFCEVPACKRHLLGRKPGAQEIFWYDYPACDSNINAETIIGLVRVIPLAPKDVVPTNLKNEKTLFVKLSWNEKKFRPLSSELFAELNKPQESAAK
The test can be described thus: ITC; 0.45 mM H4K20me2 peptide titrated over 64 µM ORC1 BAH domain; 20 mM Tris-HCl pH 7.5, 100 mM NaCl, 1 mM DTT; 5 °C; single-site binding mode. Particulars: both partners purified.

T4 sequence (P26358 728-900 E819A): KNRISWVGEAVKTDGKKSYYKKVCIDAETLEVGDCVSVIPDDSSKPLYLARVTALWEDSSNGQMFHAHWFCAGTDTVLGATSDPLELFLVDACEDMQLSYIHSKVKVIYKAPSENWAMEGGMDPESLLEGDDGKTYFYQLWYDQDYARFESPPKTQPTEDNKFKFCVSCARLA
T3 sequence (P26358 728-900 E821A): as the sequence (P26358 728-900 E819A) above, with A92E, E94A counted along it
T2 sequence (P26358 351-1600 M718A/H719A/K723A/K724A/K725A/Q726A): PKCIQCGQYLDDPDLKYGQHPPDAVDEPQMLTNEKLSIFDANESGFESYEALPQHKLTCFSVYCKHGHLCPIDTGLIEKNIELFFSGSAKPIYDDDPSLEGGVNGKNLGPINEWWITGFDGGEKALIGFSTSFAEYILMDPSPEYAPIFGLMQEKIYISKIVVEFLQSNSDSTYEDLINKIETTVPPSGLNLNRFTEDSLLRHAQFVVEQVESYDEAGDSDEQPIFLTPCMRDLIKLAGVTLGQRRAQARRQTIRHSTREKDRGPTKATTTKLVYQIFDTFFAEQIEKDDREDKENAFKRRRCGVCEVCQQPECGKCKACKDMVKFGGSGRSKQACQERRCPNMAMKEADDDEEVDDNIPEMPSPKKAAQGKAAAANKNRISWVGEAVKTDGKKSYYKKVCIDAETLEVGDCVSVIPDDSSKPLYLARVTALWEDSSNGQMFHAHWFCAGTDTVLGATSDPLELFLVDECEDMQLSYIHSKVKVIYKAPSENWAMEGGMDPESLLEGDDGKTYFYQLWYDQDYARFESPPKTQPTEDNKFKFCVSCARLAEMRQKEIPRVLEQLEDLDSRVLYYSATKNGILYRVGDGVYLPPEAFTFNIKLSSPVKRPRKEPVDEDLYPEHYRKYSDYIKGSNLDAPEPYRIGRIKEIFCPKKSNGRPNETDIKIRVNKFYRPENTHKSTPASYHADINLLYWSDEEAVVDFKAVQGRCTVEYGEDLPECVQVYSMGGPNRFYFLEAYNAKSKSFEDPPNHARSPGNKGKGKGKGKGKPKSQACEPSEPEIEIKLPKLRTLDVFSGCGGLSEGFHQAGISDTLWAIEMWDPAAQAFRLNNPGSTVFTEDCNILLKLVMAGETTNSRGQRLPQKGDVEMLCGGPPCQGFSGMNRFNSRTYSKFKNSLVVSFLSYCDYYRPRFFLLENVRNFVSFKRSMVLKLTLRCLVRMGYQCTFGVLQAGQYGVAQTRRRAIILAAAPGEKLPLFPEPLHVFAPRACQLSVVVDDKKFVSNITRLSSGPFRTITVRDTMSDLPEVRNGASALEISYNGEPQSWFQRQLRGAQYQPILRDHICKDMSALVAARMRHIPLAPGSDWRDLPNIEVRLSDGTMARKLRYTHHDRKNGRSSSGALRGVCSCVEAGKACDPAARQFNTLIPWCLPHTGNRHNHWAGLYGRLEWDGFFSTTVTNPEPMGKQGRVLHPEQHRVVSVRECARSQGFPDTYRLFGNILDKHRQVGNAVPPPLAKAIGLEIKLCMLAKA
T5 sequence (P26358 728-900 D768A): as the sequence (P26358 728-900 E819A) above, with D41A, A92E counted along it
T7 sequence (P26358 728-900): as the sequence (P26358 728-900 E819A) above, with A92E counted along it
T1 sequence (P26358 728-900): as the sequence (P26358 728-900 E819A) above, with A92E counted along it

B1: hDNMT1(714-727) autoinhibitory linker peptide (peptide)
peptide: SPKKMHQGKKKKQNY
notes: numbering on isoform 1 of 1616 amino acids; additional C-terminal tyrosine for spectroscopic quantification; source: synthetic peptide (LifeTein)
Consider B1, for which the “stoichiometry N” value in test [1] was 1.

B2: H4(14-25)K20me3 peptide (peptide)
peptide: GAKRHRKVLRDNY
modifications: trimethyl-lysine at K20
notes: histone H4, residues 14-25; additional C-terminal tyrosine for spectroscopic quantification; also called H4K20me3 peptide; source: synthetic peptide (LifeTein)
For B2, the Kd is 131 µM in [2]; 91.7 µM in [3]; 9.4 µM in [4]; 11.5 µM in test [5]; 122 µM in test [6]. The “stoichiometry N” value in test [3] was 0.88; in [4], 0.73; in [5], 0.82; in test [6], 1.45.

B3: H4(14–25)K20me3 peptide (peptide)
peptide: GAKRHRK(trimethyl)VLRDNY
notes: as for B2
B3: the binding result in [7] is on record as “binds”.

B4: autoinhibitory linker peptide hDNMT1(714–727) (peptide)
peptide: SPKKMHQGKKKKQNY
notes: numbering on isoform 1 of DNMT1 with 1616 amino acids; additional C-terminal tyrosine for spectroscopic quantification; source: synthetic peptide (LifeTein)
B4: the dissociation constant Kd in test [8] is around 70 µM.

B5: H4(14-25)K20me2 peptide (peptide)
peptide: GAKRHRK(dimethyl)VLRDNY
notes: histone H4, residues 14-25; additional C-terminal tyrosine for spectroscopic quantification; source: synthetic peptide (LifeTein)
For the molecule B5, the dissociation constant (Kd) was 35.4 µM in test [3], 12.3 µM in [4], 9.3 µM in test [5] and 8.7 µM in test [9]. The “stoichiometry N” value in [3] was 0.83; in test [4], 0.87; in test [5], 0.92; in test [9], 0.75.

B6: H4(14–25)K20me2 peptide (peptide)
peptide: GAKRHRK(dimethyl)VLRDNY
notes: histone H4, residues 14-25; additional C-terminal tyrosine for spectroscopic quantification; also called H4K20me2 peptide; source: synthetic peptide (LifeTein)
Turning to B6, the binding result in test [7] is “binds”.
